According to PMC5843284:

What was measured:
[1] = molecular target: HIV-1 group M capsid (HIV-1 group M)
[2] = molecular target: HIV-1 group M capsid (HIV-1 group M); remark: listed apart in the source

Substance	fold restriction of single-cycle HIV-1 infection in CRFK cells stably expressing the TRIM fusion, against the negative control [1] [fold]	also measured
titi monkey TRIM-RanCyp	100	–
chimpanzee TRIM-RanCyp	100	–
human TRIM-RanCyp with the gorilla residue 75R	–	fold decrease in fold change of restriction of single-cycle HIV-1 infection in CRFK cells stably expressing the TRIM fusion, against human TRIM-RanCyp [2]: 70 fold
gorilla TRIM-RanCyp with the human residue 75G	–	fold change of restriction of single-cycle HIV-1 infection in CRFK cells stably expressing the TRIM fusion, against gorilla TRIM-RanCyp [2]: 35 fold
marmoset TRIM-RanCyp	100	–
red-capped mangabey TRIM-RanCyp	100	–
gorilla TRIM-RanCyp	2	–
orangutan TRIM-RanCyp	100	–
